In the nanobody polyreactivity screen of Harvey et al. (2022):

Assay: yeast display, Sf9 membrane polyspecificity reagent, FACS + sequencing; frameworks hold sequencing errors
How it was run: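 A nanobody's polyreactivity label depends on the gate it was sorted from. Yeast display cells were stained with 10% biotinylated, detergent-solubilized Sf9 membrane reagent for 1 hour at 4 °C, enriched on streptavidin microbeads and sorted by FACS. The low and high (top ~1%) gates were set on anti-HA fluorescence for expression and streptavidin fluorescence for reagent binding.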

Sequence | polyreactivity (PSR sort gate)
QVQLVESGGGLVQAGGSLRLSCAASGSIFYNYGMGWYRQAPGKERELVAAIRASGDSTYYADSVKGRFTISRDNAKNTVYLQMNSLKPEDTAVYYCAARPNQSYYGLYFYWGQGTQVTVSS | low polyreactivity
QVQLVESGGGLVQAGGSLRLSCAATGFIFGYYALGGYRQAPGKERELVAAINKNGGSTYYADSVKGRFTISRDNAKNTVYLQMNSLKPEDTAVYYCAARARGYAWTYDYWGQGTQVTVSS | high polyreactivity
QVQLVESGGGLVQAGGSLRLSCASSGSTLRSYAMGWYRQAPGKERELVAAIDWDGGRTYYADSVKGRFTISRDNAKNTVYIQMNSLKPEDTAVYYCNTSAGWSNGKDEGDFYSGFDYWVQGTQVTVSS | low polyreactivity
QVQLVESGGGLVQAGGSLRLSCAASGYIFSLNGMGWYRQEPVKERELVAAITVSGGRTYYADSVKGRFTISRDNAKNTVYLQMNSLKPEDTAVYYCAKRGKYSYWPYYKYDYWGQGTQVTVSS | high polyreactivity
QVQLVESGGGLVKAGGSLRLSCAASGRTFGNYAMGWYRQAPGKERELVASMNTGGSTSYADSVKGRFTISRDNAKNTVYLQMNSLKPEDTAVYYCARSFFWYRLHDYWGQGTQVTVSS | low polyreactivity
QVQIVESGGLLVQAGGSLRLSCAASGFIFNPNAMGWYRQAPGKERELVAAIRWSGGSTYYADSVQGRFTISRDNEKNTVYLQMNSLKPDDTAVYYCAANPRTTRYGRGYWGQGTQVSVSS | high polyreactivity
QVQLVESGGALVQAGGSLRLSCAASGRIFYKYVMGWYRQAPGKERELVATITSGGSTYYADSVKWRFTISRDNAKNTVYLQMNSLKPEDTAVYYCAARKYYSRAYDYWGQGTQVTVSS | high polyreactivity
QVQLVESGGGLVQAGGSLRLSCAASGFIFGPYAMGWYRQAPGKERELVADITIDSGSTYYADSVKGRFTISRDNAKNTVYLQMNSLKPEDTAVYYCATDYWNEYEYWGQGTQVTVSS | low polyreactivity
QVQLVESGGGLVQAGGSLRLSCAASGSIFSYYAMGWYRQAPGKERELVAAITWSGTRTYYADSVKGRFTISRDNAKNTVYLQMNSLKPEDTAVSYCAADSSIRDAYWGQGTQVTVSS | low polyreactivity
QVQLVESGGALVQAGGSLRLSCAASGGIFSYYAMGWYRQAPGKERELVAAMSWSGTSTYYADSVKGRFTISRDNAKNTVYLQMNSLNQEDTAVYYCNKVTYSRAQYIGGDGYFWGEGTQVTVSS | high polyreactivity
QVHLVESGGGLVQAGGSLRLSCAASGFIRNYAMGWYRQAPGKERELVAAITSSGGRTYYADSVKGRFTISRDNAKNRVYLQMNSLKPEDTAVYYCAAPSRITTGPHREYDYWGQGTLVTVSS | high polyreactivity
QVQLVESGGGLVQAGGSLRLSCAASGSIFPSNAMGWYRQAPGKERELVAAISSSGGRTYYADSVKGRFTISRDNAKNTVYLQMNSLKPEDTAVYYCNRVYFKSRQGQMYYWGQGTQVTVSS | high polyreactivity
QVQLVESGGGLFQAGGRLRLSCAPSGSNFVGYVMGWYRQAPGKERELVARIRWGGGRTYYADSVKGRFTISRDNAKNTVYLQMNSLKPEDTAVYFCAAETWWRTRIYDYWGQGTQGTVSS | high polyreactivity
QFQLVESGGGLVQAGGSLRLSCAASGRIFYPYAMGWYRQATGKEREFVATIRARGGDSTSYADSVKGRFTISRDNAKNTVYLQMNSLKPEDTGVYYCAALFYTYRWRYYVYHLDYWGHGTQVTVSS | low polyreactivity
QVQLVESGGGLVQAGGSLRLSCAASGFTFVWYAMGWYRQAPGKEREFVAAINRSGGSTYYADSVKGRFTISRDNAKNTVYLQMNSLKPEDTAVYYCAAESWRGWSEFYYWGQGTQVTVSS | high polyreactivity
QVQLVESGGCLVQAGGSLRLSCAASGSIMYSYAMAWYRQAPGQERELVAAITGDGASTNYADYVKGRFTISRDNAKNTVYLQMNSLKPEDTAVYYCNAGRESDDVYEGSQRIGQFDYWGQGTQVTVSS | low polyreactivity
QVQLVESGGGLVQAGGSLRLSCAASGRTFHVYAMGWYRQAPGKEREFVAFISRRGGSTYYADSVKGRFTISRDNAKNTVYLQMNSLKPEDTAVYYCKARYVTSRSAYQRGGDYWGQGTQVTVSS | high polyreactivity
QVQLVDSGGGLVQAGGSLCLSCPASGGTSRVNAMGWYRQAPGKETELVARIRSGGSTYYADSVKGRFTISRDNAKNTVYFKMNRLKPEDTAVYHCAAVPRRTGQQQDMDYWGQGTQVTVSS | high polyreactivity
QVQLVESGGGLVQAGGSLRLSCAASGFTLQGYAMGWYRQAPGKERELVAAIRWIGTSTYYADSVKGRFTISRDYAKNTVYFQMNSLKPEDTAVYYCAAYRYNTPFGYWGQGTQVTVSS | high polyreactivity
QVQLVESGGGLVQAGGSLRLICAASGSIFVLYAMGWYRTAPGKERELVAAINYDGASTYYADSVKGRFTISRDNANNTFYLQMNSLKPKDTAVYYCAADVSYPVIYEYDYGGQGTQVTVSS | low polyreactivity
QVHLVESGGGLVQAGGSLRLSCAASGYTFKRNAMGWYRQAPGKERELVAAINIRGSSTYYADSVKGRFTISRDNAKNTVYLQMNSLKPEDTAVYYCNAVPRYGYYWGQGTQVTVSS | high polyreactivity
QVQLVESGGGLVQAGRSLRLSCAASGFTFSWYTMGWYRQAPGKERELVAAISSSGGNTYYADSVKGRFTISRDNAKNTVYLQMNSLKPEDNAVYYCVARFGSYGYYYWGQGTQVTVSS | high polyreactivity
